Measurements as given in patent publication US20140274782A1, “AFFINITY REAGENTS AND METHODS FOR DETECTION, PURIFICATION, AND PROTEOMIC ANALYSIS OF METHYLATED PROTEINS” (The Board of Trustees of the Leland Stanford Junior …, priority 2013, published 2014).

T1: G9a and GLP (Homo sapiens, UniProt Q96KQ7+Q9H9B1)
T1 sequence (Q96KQ7 2-1210 limits assumed): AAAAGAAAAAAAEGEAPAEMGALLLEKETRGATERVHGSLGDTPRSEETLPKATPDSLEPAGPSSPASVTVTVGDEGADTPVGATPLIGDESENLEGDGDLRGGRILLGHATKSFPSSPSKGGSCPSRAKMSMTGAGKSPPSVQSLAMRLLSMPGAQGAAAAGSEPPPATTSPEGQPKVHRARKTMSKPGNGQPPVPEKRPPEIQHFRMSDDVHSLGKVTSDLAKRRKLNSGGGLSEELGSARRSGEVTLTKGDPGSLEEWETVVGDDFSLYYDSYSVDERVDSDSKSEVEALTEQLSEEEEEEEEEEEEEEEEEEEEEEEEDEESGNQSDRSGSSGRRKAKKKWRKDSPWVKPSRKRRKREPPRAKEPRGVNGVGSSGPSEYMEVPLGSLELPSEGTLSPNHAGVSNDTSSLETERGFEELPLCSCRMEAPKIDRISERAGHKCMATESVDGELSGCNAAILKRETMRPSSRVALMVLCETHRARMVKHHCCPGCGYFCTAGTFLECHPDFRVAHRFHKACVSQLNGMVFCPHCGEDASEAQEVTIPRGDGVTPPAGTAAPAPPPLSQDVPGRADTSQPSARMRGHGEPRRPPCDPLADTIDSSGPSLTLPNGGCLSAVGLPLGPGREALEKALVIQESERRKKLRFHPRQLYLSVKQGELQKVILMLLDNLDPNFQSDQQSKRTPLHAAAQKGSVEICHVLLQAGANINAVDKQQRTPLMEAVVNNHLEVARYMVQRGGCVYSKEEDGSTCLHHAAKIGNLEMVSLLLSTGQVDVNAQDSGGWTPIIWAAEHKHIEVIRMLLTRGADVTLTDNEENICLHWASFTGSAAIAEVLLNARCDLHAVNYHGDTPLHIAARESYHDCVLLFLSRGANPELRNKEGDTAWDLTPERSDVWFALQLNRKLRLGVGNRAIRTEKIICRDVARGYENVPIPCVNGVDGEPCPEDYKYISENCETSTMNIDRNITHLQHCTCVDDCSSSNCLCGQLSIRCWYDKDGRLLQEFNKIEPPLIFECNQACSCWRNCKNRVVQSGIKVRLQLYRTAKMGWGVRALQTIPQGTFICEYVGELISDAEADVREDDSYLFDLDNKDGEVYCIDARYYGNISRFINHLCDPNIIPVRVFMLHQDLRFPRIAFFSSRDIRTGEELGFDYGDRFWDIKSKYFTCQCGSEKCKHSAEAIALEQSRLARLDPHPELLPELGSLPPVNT
T1 sequence (Q9H9B1 2-1298 limits assumed): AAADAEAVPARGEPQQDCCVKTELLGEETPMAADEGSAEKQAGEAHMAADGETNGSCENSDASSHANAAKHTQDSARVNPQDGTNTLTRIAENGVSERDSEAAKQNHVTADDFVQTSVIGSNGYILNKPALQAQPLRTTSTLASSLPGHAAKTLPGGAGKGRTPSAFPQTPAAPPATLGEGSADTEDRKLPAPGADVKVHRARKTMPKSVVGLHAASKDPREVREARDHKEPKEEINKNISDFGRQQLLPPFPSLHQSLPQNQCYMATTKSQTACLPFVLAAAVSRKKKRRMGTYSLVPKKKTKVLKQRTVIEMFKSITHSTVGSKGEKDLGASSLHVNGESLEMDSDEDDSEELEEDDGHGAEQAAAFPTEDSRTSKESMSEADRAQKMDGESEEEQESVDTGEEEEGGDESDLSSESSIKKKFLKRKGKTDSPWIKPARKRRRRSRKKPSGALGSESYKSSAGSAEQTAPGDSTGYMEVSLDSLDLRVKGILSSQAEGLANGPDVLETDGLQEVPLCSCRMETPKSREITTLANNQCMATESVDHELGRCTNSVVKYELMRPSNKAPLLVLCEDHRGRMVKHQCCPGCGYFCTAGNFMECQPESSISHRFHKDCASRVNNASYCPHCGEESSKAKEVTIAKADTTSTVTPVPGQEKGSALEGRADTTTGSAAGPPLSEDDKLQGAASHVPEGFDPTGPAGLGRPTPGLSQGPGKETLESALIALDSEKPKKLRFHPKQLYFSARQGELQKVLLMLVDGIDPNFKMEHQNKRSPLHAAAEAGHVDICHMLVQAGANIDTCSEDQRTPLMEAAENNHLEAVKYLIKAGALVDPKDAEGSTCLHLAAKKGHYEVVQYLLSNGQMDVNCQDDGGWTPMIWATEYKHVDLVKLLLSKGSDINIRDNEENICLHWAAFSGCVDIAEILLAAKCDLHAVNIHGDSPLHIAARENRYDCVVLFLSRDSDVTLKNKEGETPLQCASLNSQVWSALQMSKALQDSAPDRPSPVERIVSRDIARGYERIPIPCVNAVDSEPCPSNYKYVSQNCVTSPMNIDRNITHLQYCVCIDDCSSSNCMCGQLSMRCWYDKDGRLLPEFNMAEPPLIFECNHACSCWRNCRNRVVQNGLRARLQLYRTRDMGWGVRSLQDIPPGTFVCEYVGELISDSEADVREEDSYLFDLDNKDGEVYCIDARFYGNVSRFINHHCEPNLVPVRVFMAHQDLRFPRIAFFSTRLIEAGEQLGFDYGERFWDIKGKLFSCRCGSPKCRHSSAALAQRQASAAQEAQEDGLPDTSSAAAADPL


Legend:
[1] = biological target: T1, G9a and GLP; experiment: Triple SILAC pull-down after UNC0638 treatment of 293T cells, DMSO/UNC0638 ratio of protein captured by 3×MBT; assay type: cell-based; parameters: endogenous in cells; host or cells: HEK 293T; conditions: for Protein Ratios DMSO/UNC0638: SILAC ratio of protein captured by 3xMBT, 293T cells treated 24 hours with UNC0638 at 2.5 μM or DMSO;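 for all read-outs here: mass spectrometry (Q-Exactive) SILAC quantitation, DMSO/UNC0638 ratio computed after subtracting 3×MBTD355N mutant pull-down background, only proteins with at least twofold 3×MBT over mutant signal considered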
[2] = system: 3×MBT domain of L3MBTL1; experiment: Triple SILAC pull-down, 3xMBT/3xMBTD355N ratio (cytoplasmic, nuclear and chromatin fractions of 293T cells); assay type: binding, human; conditions: SILAC ratio; for Protein Ratios 3xMBT/D355N: pull-down by 3xMBT vs 3xMBTD355N, 293T cells;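 for all read-outs here: proteins quantified with MaxQuant, requiring at least two unique peptides and quantification in both label directions, normalized to the mean of proteins from a digested loading control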

Molecule | Protein Ratios DMSO/UNC0638 [1] | Relative to UNC0638 UNC Heavy ([1]; SILAC ratio DMSO/UNC0638 of protein pulled down with 3xMBT, UNC0638 in heavy SILAC media) [log base 2] | Relative to UNC0638 UNC Light ([1]; SILAC ratio DMSO/UNC0638 of protein pulled down with 3xMBT, UNC0638 in light SILAC media) [log base 2] | Relative to UNC0638 Average ([1]; average of UNC Light and UNC Heavy experiments) [log base 2] | Candidate G9a/GLP target ([1]; reduced association with 3xMBT after UNC0638 treatment) | Protein Ratios 3xMBT/D355N [2] | 3xMBT/D355N UNC Heavy ([2]; pull-down 3xMBT vs 3xMBTD355N, experiment with UNC0638 in heavy SILAC media) [log base 2] | 3xMBT/D355N UNC Light ([2]; pull-down 3xMBT vs 3xMBTD355N, experiment with UNC0638 in light SILAC media) [log base 2]
DDB1- and CUL4-associated factor 7 (protein, UniProt P61962 1-342, looked up) DDB1- and CUL4-associated …: MSLHGKRKEIYKYEAPWTVYAMNWSVRPDKRFRLALGSFVEEYNNKVQLVGLDEESSEFICRNTFDHPYPTTKLMWIPDTKGVYPDLLATSGDYLRVWRVGETETRLECLLNNNKNSDFCAPLTSFDWNEVDPYLLGTSSIDTTCTIWGLETGQVLGRVNLVSGHVKTQLIAHDKEVYDIAFSRAGGGRDMFASVGADGSVRMFDLRHLEHSTIIYEDPQHHPLLRLCWNKQDPNYLATMAMDGMEVVILDVRVPCTPVARLNNHRACVNGIAWAPHSSCHICTAADDHQALIWDIQQMPRAIEDPILAYTAEGEINNVQWASTQPDWIAICYNNCLEILRV | 1.5 | – | – | – | – | 2.8 | – | –
Hematological and neurological-expressed 1-like protein (protein, UniProt Q9H910 1-190, looked up) Jupiter microtubule …: MFQVPDSEGGRAGSRAMKPPGGESSNLFGSPEEATPSSRPNRMASNIFGPTEEPQNIPKRTNPPGGKGSGIFDESTPVQTRQHLNPPGGKTSDIFGSPVTATSRLAHPNKPKDHVFLCEGEEPKSDLKAARSIPAGAEPGEKGSARKAGPAKEQEPMPTVDSHEPRLGPRPRSHNKVLNPPGGKSSISFY | 1.6 | – | – | – | – | 8.9 | – | –
Apoptosis inhibitor 5 (protein, UniProt Q9BZZ5 2-524, looked up) Apoptosis inhibitor 5: PTVEELYRNYGILADATEQVGQHKDAYQVILDGVKGGTKEKRLAAQFIPKFFKHFPELADSAINAQLDLCEDEDVSIRRQAIKELPQFATGENLPRVADILTQLLQTDDSAEFNLVNNALLSIFKMDAKGTLGGLFSQILQGEDIVRERAIKFLSTKLKTLPDEVLTKEVEELILTESKKVLEDVTGEEFVLFMKILSGLKSLQTVSGRQQLVELVAEQADLEQTFNPSDPDCVDRLLQCTRQAVPLFSKNVHSTRFVTYFCEQVLPNLGTLTTPVEGLDIQLEVLKLLAEMSSFCGDMEKLETNLRKLFDKLLEYMPLPPEEAENGENAGNEEPKLQFSYVECLLYSFHQLGRKLPDFLTAKLNAEKLKDFKIRLQYFARGLQVYIRQLRLALQGKTGEALKTEENKIKVVALKITNNINVLIKDLFHIPPSYKSTVTLSWKPVQKVEIGQKRASEDTTSGSPPKKSSAGPKRDARQIYNPPSGKYSSNLGNFNYEQRGAFRGSRGGRGWGTRGNRSRGRLY | 1.6 | – | – | – | – | 8.6 | – | –

Now from value to molecule, other results behind:

Protein Ratios DMSO/UNC0638 [1] | Relative to UNC0638 UNC Heavy ([1]; SILAC ratio DMSO/UNC0638 of protein pulled down with 3xMBT, UNC0638 in heavy SILAC media) [log base 2] | Relative to UNC0638 UNC Light ([1]; SILAC ratio DMSO/UNC0638 of protein pulled down with 3xMBT, UNC0638 in light SILAC media) [log base 2] | Relative to UNC0638 Average ([1]; average of UNC Light and UNC Heavy experiments) [log base 2] | Candidate G9a/GLP target ([1]; reduced association with 3xMBT after UNC0638 treatment) | Molecule | Protein Ratios 3xMBT/D355N [2] | 3xMBT/D355N UNC Heavy ([2]; pull-down 3xMBT vs 3xMBTD355N, experiment with UNC0638 in heavy SILAC media) [log base 2] | 3xMBT/D355N UNC Light ([2]; pull-down 3xMBT vs 3xMBTD355N, experiment with UNC0638 in light SILAC media) [log base 2]
1.9 | 1.65 | 0.26 | 0.96 | ✓ | RNA-binding protein 15 (protein) MRTAGRDPVPRRSPRWRRAVPLCETSAGRRVTQLRGDDLRRPATMKGKERSPVKAKRSRGGEDSTSRGERSKKLGGSGGSNGSSSGKTDSGGGSRRSLHLDKSSSRGGSREYDTGGGSSSSRLHSYSSPSTKNSSGGGESRSSSRGGGGESRSSGAASSAPGGGDGAEYKTLKISELGSQLSDEAVEDGLFHEFKRFGDVSVKISHLSGSGSGDERVAFVNFRRPEDARAAKHARGRLVLYDRPLKIEAVYVSRRRSRSPLDKDTYPPSASVVGASVGGHRHPPGGGGGQRSLSPGGAALGYRDYRLQQLALGRLPPPPPPPLPRDLERERDYPFYERVRPAYSLEPRVGAGAGAAPFREVDEISPEDDQRANRTLFLGNLDITVTESDLRRAFDRFGVITEVDIKRPSRGQTSTYGFLKFENLDMSHRAKLAMSGKIIIRNPIKIGYGKATPTTRLWVGGLGPWVPLAALAREFDRFGTIRTIDYRKGDSWAYIQYESLDAAHAAWTHMRGFPLGGPDRRLRVDFADTEHRYQQQYLQPLPLTHYELVTDAFGHRAPDPLRGARDRTPPLLYRDRDRDLYPDSDWVPPPPPVRERSTRTAATSVPAYEPLDSLDRRRDGWSLDRDRGDRDLPSSRDQPRKRRLPEESGGRHLDRSPESDRPRKRHCAPSPDRSPELSSSRDRYNSDNDRSSRLLLERPSPIRDRRGSLEKSQGDKRDRKNSASAERDRKHRTTAPTEGKSPLKKEDRSDGSAPSTSTASSKLKSPSQKQDGGTAPVASASPKLCLAWQGMLLLKNSNFPSNMHLLQGDLQVASSLLVEGSTGGKVAQLKITQRLRLDQPKLDEVTRRIKVAGPNGYAILLAVPGSSDSRSSSSSAASDTATSTQRPLRNLVSYLKQKQAAGVISLPVGGNKDKENTGVLHAFPPCEFSQQFLDSPAKALAKSEEDYLVMIIVRGFGFQIGVRYENKKRENLALTLL | 9.9 | 2.14 | 4.48
1.4 | – | – | – | – | Peptidyl-prolyl cis-trans isomerase-like 4 (protein, UniProt Q8WUA2 1-492, looked up) Peptidyl-prolyl cis-trans …: MAVLLETTLGDVVIDLYTEERPRACLNFLKLCKIKYYNYCLIHNVQRDFIIQTGDPTGTGRGGESIFGQLYGDQASFFEAEKVPRIKHKKKGTVSMVNNGSDQHGSQFLITTGENLDYLDGVHTVFGEVTEGMDIIKKINETFVDKDFVPYQDIRINHTVILDDPFDDPPDLLIPDRSPEPTREQLDSGRIGADEEIDDFKGRSAEEVEEIKAEKEAKTQAILLEMVGDLPDADIKPPENVLFVCKLNPVTTDEDLEIIFSRFGPIRSCEVIRDWKTGESLCYAFIEFEKEEDCEKAFFKMDNVLIDDRRIHVDFSQSVAKVKWKGKGGKYTKSDFKEYEKEQDKPPNLVLKDKVKPKQDTKYDLILDEQAEDSKSSHSHTSKKHKKKTHHCSEEKEDEDYMPIKNTNQDIYREMGFGHYEEEESCWEKQKSEKRDRTQNRSRSRSRERDGHYSNSHKSKYQTDLYERERSKKRDRSRSPKKSKDKEKSKYR | 4.0 | – | –
